B1: M700 monoclonal antibody (antibody, human IgG1, kappa, V domains shown)
VH: VQLLEQSGAELVRPGTSVKISCKASGYAFTNYWLGWVKQRPGHGLEWIGDIFPGSGNIHYNEKFKGKATLTADKSSSTAYMQLSSLTFEDSAVYFCARLRNWDEPMDYWGQGTTVTVSS
VL: ELVMTQSPSSLTVTAGEKVTMSCKSSQSLLNSGNQKNYLTWYQQKPGQPPKLLIYWASTRESGVPDRFTGSGSGTDFTLTISSVQAEDLAVYYCQNDYSYPLTFGAGTKLEIKR
notes: also called anti-EpCAM monoclonal antibody control
B2: M701 (bispecific antibody, human IgG1, kappa)
light: ELVMTQSPSSLTVTAGEKVTMSCKSSQSLLNSGNQKNYLTWYQQKPGQPPKLLIYWASTRESGVPDRFTGSGSGTDFTLTISSVQAEDLAVYYCQNDYSYPLTFGAGTKLEIKRTVAAPSVFIFPPSDEQLKSGTASVVCLLNNFYPREAKVQWKVDNALQSGNSQESVTEQDSKDSTYSLSSTLTLSKADYEKHKVYACEVTHQGLSSPVTKSFNRGEC
heavy: EVQLLEQSGAELVRPGTSVKISCKASGYAFTNYWLGWVKQRPGHGLEWIGDIFPGSGNIHYNEKFKGKATLTADKSSSTAYMQLSSLTFEDSAVYFCARLRNWDEPMDYWGQGTTVTVSSASTKGPSVFPLAPSSKSTSGGTAALGCLVKDYFPEPVTVSWNSGALTSGVHTFPAVLQSSGLYSLSSVVTVPSSSLGTQTYICNVNHKPSNTKVDKKVEPKSCDKTHTCPPCPAPELLGGPSVFLFPPKPKDTLMISRTPEVTCVVVDVSHEDPEVKFNWYVDGVEVHNAKTKPREEQYNSTYRVVSVLTVLHQDWLNGKEYKCKVSNKALPAPIEKTISKAKGQPREPQVYTLPPSRDELTKNQVSLWCLVKGFYPSDIAVEWESNGQPENNYDTTPPVLDSDGSFFLYSDLTVDKSRWQQGNVFSCSVMHEALHNHYTQKSLSLSPGK
chain: not shown
notes: also called bispecific antibody M701
B3: M701J (bispecific antibody, human IgG1, kappa)
light: B2 light
heavy: EVQLLEQSGAELVRPGTSVKISCKASGYAFTNYWLGWVKQRPGHGLEWIGDIFPGSGNIHYNEKFKGKATLTADKSSSTAYMQLSSLTFEDSAVYFCARLRNWDEPMDYWGQGTTVTVSSASTKGPSVFPLAPSSKSTSGGTAALGCLVKDYFPEPVTVSWNSGALTSGVHTFPAVLQSSGLYSLSSVVTVPSSSLGTQTYICNVNHKPSNTKVDKKVEPKSCDKTHTCPPCPAPPVAGPSVFLFPPKPKDTLMISRTPEVTCVVVDVSHEAPEVQFNWYVDGVEVHNAKTKPREEQFNSTFRVVSVLTVVHQDWLNGKEYKCKVSNKGLPAPIEKTISKTKGQPREPQVYTLPPCRDELTKNQVSLWCLVKGFYPSDIAVEWESNGQPENNYKTTPPVLDSDGSFFLYSKLTVDKSRWQQGNVFSCSVMHEALHNHYTQKSLSLSPGK
chain: not shown
notes: YBODY format; also called bispecific antibody M701J
B4: M701G (bispecific antibody, human IgG1, kappa)
light: B2 light
heavy: B2 heavy
chain: EVQLVESGGGLVQPGGSLRLSCAASGYSFTGYTMNWVRQAPGKGLEWVALINPYKGVSTYNQKFKDRFTISVDKSKNTAYLQMNSLRAEDTAVYYCARSGYYGDSDWYFDVWGQGTLVTVSSGGGGSGGGGSGGGGSDIQMTQSPSSLSASVGDRVTITCRASQDIRNYLNWYQQKPGKAPKLLIYYTSRLESGVPSRFSGSGSGTDYTLTISSLQPEDFATYYCQQGNTLPWTFGQGTKVEIKGAAAEPKSCDKTHTCPPCPAPELLGGPSVFLFPPKPKDTLMISRTPEVTCVVVDVSHEDPEVKFNWYVDGVEVHNAKTKPREEQYNSTYRVVSVLTVLHQDWLNGKEYKCKVSNKALPAPIEKTISKAKGQPREPQVYTLPPSRDELTKNQVSLTCRVKGFYPSDIAVEWESNGQPENNYKTTPPVLKSDGSFFLASKLTVDKSRWQQGNVFSCSVMHEALHNHYTQKSLSLSPGK
notes: YBODY format; also called bispecific antibody M701G
B5: M701C (bispecific antibody, human IgG1, kappa)
light: B2 light
heavy: B2 heavy
chain: EVQLVESGGGLVQPGGSLRLSCKASGYTFTRYTMHWVRQAPGKGLEWIGYINPSRGYTNYNQKVKDRFTISRDNSKNTAFLQMDSLRPEDTGVYFCARYYDDHYCLDYWGQGTPVTVSSGGGGSGGGGSGGGGSDIQMTQSPSSLSASVGDRVTITCSASSSVSYMNWYQQTPGKAPKRWIYDTSKLASGVPSRFSGSGSGTDYTFTISSLQPEDIATYYCQQWSSNPFTFGQGTKVEIKRGAAAEPKSCDKTHTCPPCPAPELLGGPSVFLFPPKPKDTLMISRTPEVTCVVVDVSHEDPEVKFNWYVDGVEVHNAKTKPREEQYNSTYRVVSVLTVLHQDWLNGKEYKCKVSNKALPAPIEKTISKAKGQPREPQVYTLPPSRDELTKNQVSLTCRVKGFYPSDIAVEWESNGQPENNYKTTPPVLKSDGSFFLASKLTVDKSRWQQGNVFSCSVMHEALHNHYTQKSLSLSPGK
notes: YBODY format; also called bispecific antibody M701C
B6: M701E (bispecific antibody)
light: B2 light
heavy: B2 heavy
chain: not shown
notes: YBODY format; also called bispecific antibody M701E
B7: M701F (bispecific antibody, human IgG1, kappa)
light: B2 light
heavy: B2 heavy
chain: QVQLVQSGAEVKKPGASVKVSCKASGYTFISYTMHWVRQAPGQGLEWMGYINPRSGYTHYNQKLKDKATLTADKSASTAYMELSSLRSEDTAVYYCARSAYYDYDGFAYWGQGTLVTVSSGGGGSGGGGSGGGGSDIQMTQSPSSLSASVGDRVTITCSASSSVSYMNWYQQKPGKAPKRLIYDTSKLASGVPSRFSGSGSGTDFTLTISSLQPEDFATYYCQQWSSNPPTFGGGTKVEIKRGAAAEPKSCDKTHTCPPCPAPELLGGPSVFLFPPKPKDTLMISRTPEVTCVVVDVSHEDPEVKFNWYVDGVEVHNAKTKPREEQYNSTYRVVSVLTVLHQDWLNGKEYKCKVSNKALPAPIEKTISKAKGQPREPQVYTLPPSRDELTKNQVSLTCRVKGFYPSDIAVEWESNGQPENNYKTTPPVLKSDGSFFLASKLTVDKSRWQQGNVFSCSVMHEALHNHYTQKSLSLSPGK
notes: YBODY format; also called bispecific antibody M701F
B8: M701D (bispecific antibody, human IgG1, kappa)
light: B2 light
heavy: B2 heavy
chain: EVQLLESGGGLVQPGGSLRLSCAASGFTFSSFPMAWVRQAPGKGLEWVSTISTSGGRTYYRDSVKGRFTISRDNSKNTLYLQMNSLRAEDTAVYYCAKFRQYSGGFDYWGQGTLVTVSSGGGGSGGGGSGGGGSDIQLTQPNSVSTSLGSTVKLSCTLSSGNIENNYVHWYQLYEGRSPTTMIYDDDKRPDGVPDRFSGSIDRSSNSAFLTIHNVAIEDEAIYFCHSYVSSFNVFGGGTKLTVLRQPGAAAEPKSCDKTHTCPPCPAPELLGGPSVFLFPPKPKDTLMISRTPEVTCVVVDVSHEDPEVKFNWYVDGVEVHNAKTKPREEQYNSTYRVVSVLTVLHQDWLNGKEYKCKVSNKALPAPIEKTISKAKGQPREPQVYTLPPSRDELTKNQVSLTCRVKGFYPSDIAVEWESNGQPENNYKTTPPVLKSDGSFFLASKLTVDKSRWQQGNVFSCSVMHEALHNHYTQKSLSLSPGK
notes: YBODY format; also called bispecific antibody M701D

What was measured:
[1] = biological target: T1, human EpCAM on the cell surface (human, UniProt P16422 24-314); assay: flow cytometry (FACS) on HCT116 cells, PE anti-human IgG Fc detection
T1 construct: whole, on cells; also called EpCAM of cells; HCT116 cells
T1 sequence (looked up): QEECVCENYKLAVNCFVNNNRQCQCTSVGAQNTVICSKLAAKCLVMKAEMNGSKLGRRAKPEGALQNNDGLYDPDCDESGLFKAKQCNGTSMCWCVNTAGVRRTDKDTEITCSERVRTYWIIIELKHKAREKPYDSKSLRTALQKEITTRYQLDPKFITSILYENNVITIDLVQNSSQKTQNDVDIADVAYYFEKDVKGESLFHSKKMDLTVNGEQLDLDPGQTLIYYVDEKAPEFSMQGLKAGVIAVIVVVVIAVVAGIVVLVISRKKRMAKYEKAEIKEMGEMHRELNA

[2] = biological target: T1, human EpCAM on the cell surface; assay: cell-based or functional assay
[3] = biological target: T2, human EpCAM antigen (SB, Cat: 10694-H08H) (human, UniProt P16422 24-265); assay: SPR (Biacore T200), antigen amine-coupled on CM5, antibody as analyte, 1:1 fit; D0 sample
T2 construct: Bought antigen immobilised on a CM5 chip
T2 sequence (looked up): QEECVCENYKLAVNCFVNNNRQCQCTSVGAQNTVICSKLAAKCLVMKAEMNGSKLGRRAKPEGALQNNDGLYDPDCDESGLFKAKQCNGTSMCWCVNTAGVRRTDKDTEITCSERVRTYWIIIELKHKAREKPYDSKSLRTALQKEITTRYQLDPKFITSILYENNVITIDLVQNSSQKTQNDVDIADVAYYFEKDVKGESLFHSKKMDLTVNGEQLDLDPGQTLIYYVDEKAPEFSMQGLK

[4] = biological target: T2, human EpCAM antigen (SB, Cat: …); assay: SPR (Biacore T200), antigen amine-coupled on CM5, antibody as analyte, 1:1 fit; D14 sample after 14 days at 40 C
[5] = biological target: human CD3 antigen (SB, Cat: CT038-H2508H) (human, UniProt P07766 23-126; P04234 22-105); assay: SPR (Biacore T200), antigen amine-coupled on CM5, antibody as analyte, 1:1 fit; D0 sample

Row | Binder | EC50 [1] | killing EC50 (PBMC effector cells, HCT116 target cells) [2] | Kd [3] | Kd [4] | Kd [5]
1 | B1 | 1.78 nM |  |  |  | 
2 | B2 | 10.5 nM | 0.0692 µg/mL |  |  | 
3 | B3 | 3.78 nM |  | 18.2 nM | 18.7 nM | 
4 | B4 |  |  | 19.7 nM |  | 18.8 nM
5 | B5 |  |  | 18.6 nM |  | 37.2 nM
6 | B6 |  |  | 23.1 nM |  | 
7 | B7 |  |  | 17.9 nM |  | 61.3 nM
8 | B8 |  |  | 14.4 nM |  | 

Reference: patent publication US20250002605A1 (WUHAN YZY BIOPHARMA, published 2025)
